Reference: patent US20180105595A1

Tests used:
[1] = target: 2D8 scFv (anti-WTE)-CD8 hinge region-CD28a-CD28b-CD137-CD3ζ chimeric antigen receptor on T lymphocytes (human) (UniProt P01732); assay: cell-based or functional assay
human EGFRvIII (human) = human EGFRvIII (human) (UniProt P00533); assay: cell-based or functional assay

Chain of UniProt P01732 (P01732 other isoform, or with tags, fused parts or gaps mutant limits assumed): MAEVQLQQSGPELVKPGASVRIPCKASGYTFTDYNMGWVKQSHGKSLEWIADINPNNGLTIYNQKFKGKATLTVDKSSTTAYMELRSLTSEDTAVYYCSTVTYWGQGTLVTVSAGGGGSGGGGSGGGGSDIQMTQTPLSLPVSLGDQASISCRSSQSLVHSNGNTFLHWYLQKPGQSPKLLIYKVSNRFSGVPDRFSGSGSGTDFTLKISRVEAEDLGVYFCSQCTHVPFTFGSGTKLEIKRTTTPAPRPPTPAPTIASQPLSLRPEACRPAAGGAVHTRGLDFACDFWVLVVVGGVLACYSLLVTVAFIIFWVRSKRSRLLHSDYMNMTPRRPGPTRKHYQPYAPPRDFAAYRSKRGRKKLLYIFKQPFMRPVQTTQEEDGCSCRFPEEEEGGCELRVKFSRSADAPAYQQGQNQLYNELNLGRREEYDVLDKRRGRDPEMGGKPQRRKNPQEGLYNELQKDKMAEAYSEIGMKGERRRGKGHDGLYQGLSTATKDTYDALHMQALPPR

Row | Molecule | reduction of WTE-CH12-mediated cytotoxicity of CAR+ T cells on U87MG-EGFRvIII, free WTE polypeptide at 2-fold molar concentration of WTE-CH12, against Experimental group 1 [1] [%] | reduction of WTE-CH12-mediated cytotoxicity of CAR+ T cells on U87MG-EGFRvIII, free WTE polypeptide at 20-fold molar concentration of WTE-CH12, against Experimental group 1 [1] [%] | cytotoxicity % (LDH release) of anti-WTE CAR+ T cells on Huh-7-EGFRvIII cells at 10^4 ng/ml WTE-CH12, effector:target 3:1 (human EGFRvIII (human)) [%] | cytotoxicity % (LDH release) of anti-WTE CAR+ T cells on U87MG-EGFRvIII cells at 10^4 ng/ml WTE-CH12, effector:target 10:1 (human EGFRvIII (human)) [%]
1 | WTE polypeptide (free) (from UniProt P00533 1189-1210) | 31.1 | 87.8 | – | –
2 | anti-human EGFRvIII WTE-CH12 antibody (antibody, V domains shown) VH: DVQLQESGPGLVKPSQSLSLTCTVTAYSVTSDYAWNWIRQFPGNKLEWMGYISYSGTTRYNPSLKSRISITRDTSKNQFFLQLNSMTAEDTATYYCSRQGRGFPYWGQGTLVTVSA VL: DILMTQSPSSMSVSLGDTVSITCHASQDINSNIGWLQQKPGKSFKGLIYHGTNLEDGVPSRFSGSGSGADYSLTISSLESEDFADYYCVQYAQFPWTFGGGTKLEIKR | – | – | 93 | 98.3
